Legend:
[1] = molecular target: HLA-A2.1 molecules on T2 (TAP-, HLA-A2.1+) cells (human); test: T2 cells, stabilisation assay, BB7.2 flow cytometry at 0, 2, 4, 6, 8 h
[2] = molecular target: HLA-A2.1 molecules on T2 (TAP-, HLA-A2.1+) cells (human); test: T2 cells, peptide binding by surface HLA-A2.1 (BB7.2) flow cytometry; ratio of concentrations reaching 20% of maximal binding

Substance: Tyrosinase 368-376-N epitopic peptide
- DC50 (half-life of peptide-HLA-A2.1 complexes) [1]: > 8 h
- RA (relative affinity) (ratio to HIV 1 rt.476 reference peptide) [2]: 2.2
